{"source": "patent US8227408B2", "about": "“Leptin as an anti-amyloidogenic biologic and methods for delaying the onset and reducing Alzheimer's disease-like pathology” (Neurotez, Inc., priority 2005, dated 2012)", "molecules": {"B1": {"name": "Leptin: peptide hormone controlling adaptive metabolic mechanisms to energy availability; leptin (Harbor-UCLA) in vitro, recombinant murine leptin in mice (protein, UniProt P41160 22-167, looked up)", "Leptin": "VPIQKVQDDTKTLIKTIVTRINDISHTQSVSAKQRVTGLDFIPGLHPILSLSKMDQTLAVYQQVLTSLPSQNVLQIANDLENLRDLLHLLAFSKSCSLPQTSGLQKPESLDGVLEASLYSTEVVALSRLQGSLQDILQQLDVSPEC"}}, "tested_on": "SY5Y cells", "experiment": "125I-Aβ uptake by SY5Y cells (apoE-dependent)", "assay_type": "cell-based, human", "method": "Preparation of ApoE and binding with ^125I-Aβ. ApoE was isolated from the conditioned media of human embryonic kidney (HEK-293) cells stably-transfected with human apoE (having the ε3 allele or the ε4 allele) cDNA (Tezapsidis et al., FASEB J. 17:1322-1324 (2003)). These preparations, while usually poor in lipid, are fully functional for uptake experiments. ApoE then was pre-incubated with ^125I-Aβ overnight at 37° C. (Aβ/ApoE: 1/50 w/w) as described (Tezapsidis et al., FASEB J. 17:1322-1324 (2003)).\nAβ-uptake by SY5Y cells. Human ^125I-Aβ (iodinated at Tyr-10, Amersham Biosciences, IM 294) uptake was measured following addition of 0.1 nM ^125I-Aβ40 (SEQ ID NO: 4) to confluent SY5Y cells (60,000 cpm/ml) in the presence or absence of 100 ng/ml or 400 ng/ml leptin also included in a 24 h pre-incubation period. ^125I-Aβ was either added alone or was previously incubated with apoε3. In controls, Receptor Associated Protein (“RAP”, 1 μM) was added together with Aβ or the Aβ/apoE complex. RAP is an antagonist of a number of lipoprotein receptors (LaDu et al., Neurochem Int. 39:427-34 (2001)). After 24 h, the media were collected and subjected to scintillation counting for γ-Iradiation (Kang et al., 2000. J Clin Invest. 106:1159-66 (2000)). The amount of radioactivity was measured in both the trichloroacetic acid (10%) TCA pellets (representing intact Aβ) and the corresponding supernatants (representing degraded Aβ). 96.5±8.2% (mean±s.e.m., n=4 experiments, triplicate determinations) of the radioactivity found in the medium could be recovered in the TCA pellet and represented intact or oligomeric Aβ (not shown), when Aβ was pre-incubated with apoE.\nThe amount of TCA-precipitable radioactivity in the soluble fraction of cell lysates was compared to that in the total lysates, the ratio of which was typically about 0.8 to about 0.9 (not shown), to further verify that radioactivity was reduced in the media as a reflection of Aβ uptake by the cells, rather than due to non-specific binding to the extracellular surface of membranes or oligomerization/aggregation of Aβ.\nIn panel (a), Aβ uptake was measured in SY5Y cells following their treatment at 0 ng/ml, 100 ng/ml or 400 ng/ml leptin. Uptake also was measured in cells previously transfected with antisense DNA for PS1 as described (Tezapsidis et al., FASEB J. 17:1322-1324(2003)) (black). Uptake is expressed as the percentage of that observed with Aβ pre-incubated with apoε3 (medium gray) in the absence of leptin (first set of columns). […] Leptin induced a dose-dependent increase in Aβ uptake with a preference for apoε3 (medium gray) over apoε4 (light gray). In panel (b), SY5Y cells were pre-treated with […] cholesterol (+Chol) or normal medium (−Chol). Then Aβ uptake was measured following its preincubation with apoε3 (ε3) or apoε4 (ε4) in the absence (black) or the presence (gray) of about 400 ng/ml leptin. Cells were more resistant to taking-up Aβ when loaded with cholesterol. […] In panel (c), SY5Y cells were transiently transfected with SREBP-1 or SREBP-2 cDNA or an empty vector (Control). Then Aβ was measured in the medium by ELISAs (Figueiredo-Pereira et al., J Neurochem. 72:1417-22 (1999)) following treatment with (+) or without (−) leptin. […] In panel (d), Aβ uptake was measured in SY5Y cells prepared as in panel (c). Uptake was performed using Aβ/apoε3 complexes."}
{"molecule": "B1", "values": [{"measurement": "uptake of apoE-Aβ", "setting": "100 ng/ml or 400 ng/ml leptin, 24 h pre-incubation and uptake", "value": "increased the uptake of apoE-Aβ in a dose-dependent fashion"}, {"measurement": "Aβ uptake phenotype of cholesterol-loaded cells", "setting": "about 400 ng/ml leptin during cholesterol pre-incubation and during uptake", "value": "almost completely reversed"}]}
